The source of these data is patent US20240100176A1 (Eli Lilly, published 2024).

Test [1] has as its target T1, hexahistidine tagged human IL-4Rα ECD D125R (human, UniProt P24394 26-232).
T1 construct: not shown: hexahistidine tag
Briefly: capture ELISA: Ab1 on anti-human IgG Fc, His-tagged receptor at 1 µg/mL, anti-His HRP. An excerpt: (§1) Example 2d. […] Briefly, thirty surface amino acid residue substitutions were introduced individually into hexahistidine tagged human IL-4Rα extra cellular domain (ECD) as follows: K2D, E6R, K22D, P26R, T31R, F41A, L42G, L43G, E45R, E52R, G56R, D66R, A71R, Q82G, K87D, E94R, H107A, D108R, P124R, D125R, D143R, R148D, L155R, R160D, S164R, S168R, Q181R, P192R, K195D, or H197G. Each mutant protein having a single amino acid residue substitution as described above was transiently expressed in CHO cells and purified using standard immobilized metal affinity chromatography techniques. […] The plates were then washed 3 times with PBST and the exemplified human IL-4Rα antibody was added to the wells at a final concentration of 1 μg/mL in PBS-casein and incubated for 1 hour at room temperature. The plates were washed 3 times with PBST, the IL-4Rα mutant proteins were serially diluted 5-fold from 1 μg/mL for 3 points. in PBS-casein and added to the plate at 50 μL/well and incubated for 1 hour at room temperature. The plates were washed 3 times with PBST and a 1000-fold dilution of anti-histidine tag antibody HRP conjugate (R&D Systems, Cat. #MAB050H) in PBS-casein was added and incubated for 45 minutes at room temperature. The plates were washed 3 times, TMB substrate (Pierce, Cat. #34028) was added per manufacturer instructions, the reaction was quenched with H₂SO₄, and absorbance was read at 450 nm on an ELISA plate reader.

Test [2] concerns the target T2, hexahistidine tagged human IL-4Rα ECD G56R (human, UniProt P24394 26-232).
T2 construct: not shown: hexahistidine tag
The test is described as above.
Description: as §1

Test [3] has as its target T3, hexahistidine tagged human IL-4Rα ECD K2D (human, UniProt P24394 26-232).
T3 construct: not shown: hexahistidine tag
The description is as above.
Description: as §1

In test [4] the target is T4, human FcγRI (CD64) extracellular domain (human, UniProt P12314 16-292).
T4 construct: extracellular domain
As to the kind of experiment: SPR (Biacore), antibody captured on protein A, FcγR ECD as analyte, 25 °C. As to the method: Unreacted sites were blocked with a 7 minute injection of ethanolamine at 10 μL/minute. Injections of 2×10 μL of glycine, pH 1.5, was used to remove any noncovalently associated protein. Running buffer was 1×HBS-EP+(TEKNOVA, P/N H8022). The FcγR extracellular domains (ECDs)-FcγRI (CD64), FcγRIIA_131R, and FcγRIIA_131H (CD32a), FcγRIIIA_158V, FcγRIIIA_158F (CD16a), and FcγRIIb (CD32b) were produced from stable CHO cell expression and purified using IgG Sepharose and size exclusion chromatography. For FcγRI binding, antibodies were diluted to […] in running buffer, and approximately 150 RU of each antibody was captured in FCs 2 through 4 (RU captured). FC1 was the reference FC, therefore no antibody was captured in FC1. […] Duplicate injections of each concentration were injected over all FCs at 40 μL/minute for 120 seconds followed by a 1200 second dissociation phase. Regeneration was performed by injecting 15 μL of 10 mM glycine, pH 1.5, at 30 μL/minute over all FCs. […] The affinity (KD) was calculated using either steady state equilibrium analysis with the Scrubber 2 Biacore Evaluation Software or a “1:1 (Langmuir) binding” model in BIA Evaluation. […] The affinity (KD) was calculated using the steady state equilibrium analysis with the Scrubber 2 Biacore Evaluation Software. […]

Test [5] deals with T5, human FcγRIIb (CD32b) extracellular domain (human, UniProt P31994 43-217).
T5 construct: extracellular domain
T5 sequence (looked up): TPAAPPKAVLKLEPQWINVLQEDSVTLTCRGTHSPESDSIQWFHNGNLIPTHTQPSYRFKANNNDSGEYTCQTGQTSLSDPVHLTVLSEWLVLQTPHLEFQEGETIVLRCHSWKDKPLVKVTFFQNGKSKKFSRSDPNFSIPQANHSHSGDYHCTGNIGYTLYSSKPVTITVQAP
Briefly: SPR (Biacore), antibody captured on protein A, FcγR ECD as analyte, steady state, 25 °C. The protocol: (§2) Unreacted sites were blocked with a 7 minute injection of ethanolamine at 10 μL/minute. Injections of 2×10 μL of glycine, pH 1.5, was used to remove any noncovalently associated protein. Running buffer was 1×HBS-EP+(TEKNOVA, P/N H8022). The FcγR extracellular domains (ECDs)-FcγRI (CD64), FcγRIIA_131R, and FcγRIIA_131H (CD32a), FcγRIIIA_158V, FcγRIIIA_158F (CD16a), and FcγRIIb (CD32b) were produced from stable CHO cell expression and purified using IgG Sepharose and size exclusion chromatography. For FcγRI binding, antibodies were diluted to […] in running buffer, and approximately 150 RU of each antibody was captured in FCs 2 through 4 (RU captured). FC1 was the reference FC, therefore no antibody was captured in FC1. […] Duplicate injections of each concentration were injected over all FCs at 40 μL/minute for 120 seconds followed by a 1200 second dissociation phase. Regeneration was performed by injecting 15 μL of 10 mM glycine, pH 1.5, at 30 μL/minute over all FCs. Reference-subtracted data was collected as FC2 FC1, FC3-FC1, and FC4-FC1 and the measurements were obtained at 25° C. The affinity (KD) was calculated using either steady state equilibrium analysis with the Scrubber 2 Biacore Evaluation Software or a “1:1 (Langmuir) binding” model in BIA Evaluation. For FcγRIIa, FcγRIIb, and FcγRIIIa binding, antibodies were diluted to 5 μg/mL in running buffer, and approximately 500 RU of each antibody was captured in FCs 2 through 4). FC1 was the reference FC. […] Duplicate injections of each concentration were injected over all FCs at 40 μL/minute for 60 seconds followed by a 120 second dissociation phase. Regeneration was performed by injecting 15 μL of 10 mM glycine, pH 1.5, at 30 μL/minute over all FCs. Reference-subtracted data was collected as FC2-FC1, FC3-FC1, and FC4-FC1, and the measurements were obtained at 25° C. The affinity (KD) was calculated using the steady state equilibrium analysis with the Scrubber 2 Biacore Evaluation Software. Each receptor was assayed at least two times.

Test [6] deals with T6, human FcγRIIA_131H (CD32a) extracellular domain (human, UniProt P12318 34-217).
T6 construct: extracellular domain
T6 sequence (looked up): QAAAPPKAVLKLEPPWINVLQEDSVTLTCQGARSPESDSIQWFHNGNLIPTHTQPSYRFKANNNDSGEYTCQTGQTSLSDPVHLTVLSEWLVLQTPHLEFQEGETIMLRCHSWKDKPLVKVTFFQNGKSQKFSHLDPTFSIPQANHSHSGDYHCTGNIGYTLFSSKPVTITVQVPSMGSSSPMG
The description is as above. The protocol: as §2

The target in test [7] is T7, human FcγRIIA_131R (CD32a) extracellular domain (human, UniProt P12318 34-217).
T7 construct: extracellular domain
T7 sequence (looked up): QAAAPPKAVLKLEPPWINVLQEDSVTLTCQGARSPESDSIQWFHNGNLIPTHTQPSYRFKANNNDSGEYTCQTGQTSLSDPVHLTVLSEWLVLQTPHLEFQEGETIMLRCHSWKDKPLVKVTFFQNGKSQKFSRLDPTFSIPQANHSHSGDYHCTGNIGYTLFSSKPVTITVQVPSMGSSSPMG
The description is as above. The protocol: as §2

Test [8] deals with T8, human FcγRIIIA_158V (CD16a) extracellular domain (human, UniProt P08637 17-208).
T8 construct: extracellular domain
The description is as above. The protocol: as §2

T8 sequence (P08637 17-208 F176V): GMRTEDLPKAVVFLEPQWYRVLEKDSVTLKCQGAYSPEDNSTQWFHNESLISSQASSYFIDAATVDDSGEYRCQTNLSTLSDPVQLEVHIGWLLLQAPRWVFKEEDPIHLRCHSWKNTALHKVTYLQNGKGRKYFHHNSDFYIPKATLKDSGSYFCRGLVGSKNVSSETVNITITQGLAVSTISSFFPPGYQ
T4 sequence (P12314 16-292): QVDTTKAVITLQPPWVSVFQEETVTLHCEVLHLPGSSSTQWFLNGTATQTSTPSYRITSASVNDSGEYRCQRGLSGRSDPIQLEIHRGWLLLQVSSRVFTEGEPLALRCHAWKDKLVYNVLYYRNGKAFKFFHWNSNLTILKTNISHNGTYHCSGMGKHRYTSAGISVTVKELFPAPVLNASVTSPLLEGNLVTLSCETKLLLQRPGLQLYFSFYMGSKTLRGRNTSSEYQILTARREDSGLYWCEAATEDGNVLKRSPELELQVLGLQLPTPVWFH
T1 sequence (P24394 26-232 D150R): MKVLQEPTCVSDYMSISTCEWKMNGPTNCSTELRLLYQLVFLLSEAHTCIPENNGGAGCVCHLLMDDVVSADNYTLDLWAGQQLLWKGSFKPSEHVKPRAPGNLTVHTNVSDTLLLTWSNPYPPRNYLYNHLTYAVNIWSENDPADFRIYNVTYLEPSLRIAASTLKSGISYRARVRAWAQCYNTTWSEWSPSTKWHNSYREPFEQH
T3 sequence (P24394 other isoform, or with tags, fused parts or gaps): as the sequence (P24394 26-232 D150R) above, with K2D, R125D counted along it

B1: anti-human IL-4Rα antibody Ab1 (antibody, human IgG4 S228P, kappa)
heavy: QVQLVESGGGLVQPGGSLRLSCVASGFTFSHSSMNWVRQAPGKGLEWVSYISRATGAVYYADSVKGRFTISRDNAKNSLYLQMNSLRDEDTAVYYCAREPVFDYWGQGTLVTVSSASTKGPCVFPLAPCSRSTSESTAALGCLVKDYFPEPVTVSWNSGALTSGVHTFPAVLQSSGLYSLSSVVTVPSSSLGTKTYTCNVDHKPSNTKVDKRVESKYGPPCPPCPAPEFLGGPSVFLFPPKPKDTLMISRTPEVTCVVVDVSQEDPEVKFNWYVDGVEVHNAKTKPREEQFNSTYRVVSVLTVLHQDWLNGKEYKCKVSNKGLPSSIEKTISKAKGQPREPQVYTLPPSREEMTKNQVSLTCLVKGFYPSDICVEWESNGQPENNYKTTPPVLDSDGSFFLYSRLTVDKSRWQQGNVFSCSVMHEALHNHYTQKSLSLSLG
light: DIQMTQSPSAMSASVGDRVTITCRASQDISNYLAWFQQKPGKVPTRLIYAASSLQSGVPSRFSGSGSGTEFTLTISSLQPEDFATYYCLQWSSYPRTFGQGTKVEIKRTVAAPSVFIFPPSDEQLKSGTASVVCLLNNFYPREAKVQWKVDNALQSGNSQESVTEQDSKDSTYSLSSTLTLSKADYEKHKVYACEVTHQGLSSPVTKSFNRGEC
notes: human kappa light chain; also called anti-human IL-4Rα Ab1; unconjugated Ab1
With B1, the figures for the “ELISA (OD450)” value in test [1], in test [2] and in test [3] were 1.79 OD450, 1.73 OD450 and 2.05 OD450, respectively.

B2: anti-human IL-4Rα Ab1 GC conjugate of Example 1b (n=4) (antibody, human IgG4 S228P, kappa)
heavy: QVQLVESGGGLVQPGGSLRLSCVASGFTFSHSSMNWVRQAPGKGLEWVSYISRATGAVYYADSVKGRFTISRDNAKNSLYLQMNSLRDEDTAVYYCAREPVFDYWGQGTLVTVSSASTKGPCVFPLAPCSRSTSESTAALGCLVKDYFPEPVTVSWNSGALTSGVHTFPAVLQSSGLYSLSSVVTVPSSSLGTKTYTCNVDHKPSNTKVDKRVESKYGPPCPPCPAPEFLGGPSVFLFPPKPKDTLMISRTPEVTCVVVDVSQEDPEVKFNWYVDGVEVHNAKTKPREEQFNSTYRVVSVLTVLHQDWLNGKEYKCKVSNKGLPSSIEKTISKAKGQPREPQVYTLPPSREEMTKNQVSLTCLVKGFYPSDICVEWESNGQPENNYKTTPPVLDSDGSFFLYSRLTVDKSRWQQGNVFSCSVMHEALHNHYTQKSLSLSLG
light: DIQMTQSPSAMSASVGDRVTITCRASQDISNYLAWFQQKPGKVPTRLIYAASSLQSGVPSRFSGSGSGTEFTLTISSLQPEDFATYYCLQWSSYPRTFGQGTKVEIKRTVAAPSVFIFPPSDEQLKSGTASVVCLLNNFYPREAKVQWKVDNALQSGNSQESVTEQDSKDSTYSLSSTLTLSKADYEKHKVYACEVTHQGLSSPVTKSFNRGEC
modifications: glucocorticoid receptor agonist payload-linker (GC-L, Preparation 8) conjugated to the engineered cysteines at the 124 and 378 position of the heavy chain (EU numbering); n is 4 (average DAR 4.17 by RP-HPLC, 3.85 by TOF MS)
Turning to B2, the Kd in test [4] came out at 0.64 nM; in test [5], 1960 nM; in test [6], 3650 nM; in test [7], 1820 nM; in test [8], 4920 nM.
